Test results: article PMC10063658, “The RNA-binding protein hnRNP F is required for the germinal center B cell response”

What was measured:
[1] = system: CELF2 (mouse); test: pull-down/MS; conditions: Pull-down: 20 mM Tris-HCl pH 7.5, 200 mM NaCl, 6 mM EDTA, 5 mM KF, 5 mM beta-glycerophosphate, 4 h at 4 C, 100 ug nuclear extract; EMSA: BersinBio RNA-EMSA …
[2] = system: hnRNP H1 (B cell nuclear extract) (mouse); test: pull-down/MS; conditions: Pull-down: 20 mM Tris-HCl pH 7.5, 200 mM NaCl, 6 mM EDTA, 5 mM KF, 5 mM beta-glycerophosphate, 4 h at 4 C, 100 ug nuclear extract; EMSA: BersinBio RNA-EMSA …
[3] = system: hnRNP H2 (mouse); test: pull-down/MS; conditions: Pull-down: 20 mM Tris-HCl pH 7.5, 200 mM NaCl, 6 mM EDTA, 5 mM KF, 5 mM beta-glycerophosphate, 4 h at 4 C, 100 ug nuclear extract; EMSA: BersinBio RNA-EMSA …
[4] = system: hnRNP H3 (mouse); test: pull-down/MS; conditions: Pull-down: 20 mM Tris-HCl pH 7.5, 200 mM NaCl, 6 mM EDTA, 5 mM KF, 5 mM beta-glycerophosphate, 4 h at 4 C, 100 ug nuclear extract; EMSA: BersinBio RNA-EMSA …
[5] = target: T1, hnRNP F (mouse, UniProt Q9Z2X1 1-415); test: EMSA; Pull-down: 20 mM Tris-HCl pH 7.5, 200 mM NaCl, 6 mM EDTA, 5 mM KF, 5 mM beta-glycerophosphate, 4 h at 4 C, 100 ug nuclear extract; EMSA: BersinBio RNA-EMSA kit, 12.5 nM biotin-RNA, 200 ng protein; conditions: protein: recombinant, tags: His
T1 sequence: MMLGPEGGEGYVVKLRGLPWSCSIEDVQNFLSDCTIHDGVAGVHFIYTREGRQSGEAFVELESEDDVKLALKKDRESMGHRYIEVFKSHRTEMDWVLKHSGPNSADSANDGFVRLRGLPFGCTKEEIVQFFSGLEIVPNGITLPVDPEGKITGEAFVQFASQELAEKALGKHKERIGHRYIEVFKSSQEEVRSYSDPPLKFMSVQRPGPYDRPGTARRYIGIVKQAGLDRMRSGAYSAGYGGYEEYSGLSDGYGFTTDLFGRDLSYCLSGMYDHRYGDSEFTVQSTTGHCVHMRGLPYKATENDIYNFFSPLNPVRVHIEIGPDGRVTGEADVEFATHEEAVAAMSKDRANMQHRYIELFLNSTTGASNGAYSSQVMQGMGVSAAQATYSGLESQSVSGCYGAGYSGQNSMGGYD

## Cd40 exon 6 sense RNA
[1]
  binding signal (fold LFQ (sense/antisense)): > 5
[2]
  binding signal (fold LFQ (sense/antisense)): > 5
[3]
  binding signal (fold LFQ (sense/antisense)): > 5
[4]
  binding signal (fold LFQ (sense/antisense)): > 5

B1: I6-WT (ssRNA)
RNA: UCCAGGGGAGAAUGGCCUUGCCAAGUCUUUGGGAAGCAGGGAACU
[5]
  binding result: binds

B2: I7-WT (ssRNA)
RNA: UCAGGAGAGGAAAGGGAGGGAGGGU
[5]; label: 5' biotin
  binding result: binds
